Publication PMC11849073, “Specific recognition mechanism of an antibody to sulfated tyrosine and its potential use in biological research” (The Journal of Biological Chemistry, 2025)
Where “and” joins values, the source holds several entries; their conditions need not be identical. Equal entries are not always repeated. Entries after “also recorded” stand apart in the source; their conditions may differ. Where two headings read alike, the source gives them in different places.

Legend:
[1] = test system: sulfated N-terminal peptide of CCR5; experiment: SPR kinetic interaction analysis of BA8 Fab (wild type and mutants) with the sulfated peptide; assay type: binding; conditions: SPR Biacore 8K, PBS 0.005% Tween 20, global fitting
Excerpt: To quantitatively evaluate the intermolecular interaction between BA8 and the sulfated N-terminal peptide of CCR5, we prepared a Fab fragment of BA8 as a recombinant protein (Fig. S2, A and B) and conducted kinetic interaction analysis using SPR. The Fab was immobilized on a sensor chip using amine coupling, and the synthesized sulfated and non-sulfated N-terminal peptides of CCR5 were used as the analytes.
To further dissect how molecular recognition occurs, we evaluated the contribution of individual residues of BA8 to the recognition of the sulfated peptide. We analyzed the crystal structure using the PDB PISA server, and we conducted mutation analyses in which the residues predicted to form hydrogen bonds or located at the interface were mutated to alanine (Fig. 3B).
The bindings of the peptides to Fabs were analyzed using a Biacore 8K instrument (Cytiva). Each Fab was immobilized on the surface of a CM5 sensor chip (Cytiva) by the amine-coupling method according to the manufacturer’s instructions in the condition of pH 5.5. The immobilization level reached to about 3000 Response Unit (RU). PBS containing 0.005% Tween 20 was used as the running buffer. The kinetic data were obtained by injection of increasing concentrations of peptides into the sensor chip. The flow rate of the analyte were set to 30 μl/min. The data were analyzed using BIAevaluation software (Cytiva), and the binding affinity as well as kinetic parameters were calculated by a global fitting of the curves.

[2] = DSF thermal stability of BA8 Fab and mutants; assay type: physicochemical
Method: To assess the effect of sulfated peptide binding on the thermal stability of BA8, we performed differential scanning fluorimetry (DSF) measurements (Fig. 2C) ([25]). The melting temperature (Tm) of BA8 forming a complex with the sulfated peptide was 75.6 °C, whereas the pre-binding Tm was 70.8 °C.
We evaluated the stabilizing effect of peptide binding on each mutant using DSF (Fig. S6).
The DSF thermal stability measurements were performed using a CFX Real-Time PCR System (Bio-Rad). First, 1 μl of 100 × SYPRO Orange stain was diluted with 19 μl of 8.3 μM unbound-BA8 Fab or the solution remaining in the cell after ITC measurement. Next, fluorescence was scanned every minute to obtain melting curves of the solutions as they were heated at 1.0 °C/min. The change in the scanned relative fluorescence unit per unit time was recorded, and the temperature at its peak was considered to be the melting temperature (Tm) ([42]).

[3] = test system: sulfated CCR5 on HEK293 cells transfected with CCR5 + TPST2 (C2); experiment: Flow cytometry binding to C2 cells; assay type: cell-based
Excerpt: (§1) We prepared model cells with transient overexpression to examine whether BA8 can recognize sulfated full-length CCR5. As referred in the Introduction section, previous research has shown that protein tyrosine sulfotransferases (TPSTs) are responsible for tyrosine sulfation ([10], [11], [12]). Those two isoforms of TPST (TPST1 and TPST2) and CCR5 genes were transiently transfected in the following five combinations to HEK293 cells: Negative Control (NC); CCR5 (C); CCR5 + TPST1 (C1); CCR5 + TPST2 (C2); and CCR5 + TPST1 + TPST2 (C12). Each protein contained the following tag sequences at the C-terminus: CCR5 – FLAG, TPST1 – HA, and TPST2 – Myc. The overexpression of each protein was confirmed by western blotting using tag antibodies (Fig. 5, A and B).
(§2) We conducted flow cytometry using these cells to confirm that BA8 can recognize sulfated CCR5 expressed on the cell surface (Fig. 5D).
(§3) To quantitatively evaluate the binding ability of BA8 to C2 and C12 cells, we plotted the median fluorescence intensity of antibody binding against BA8 concentration (Fig. 5E). An increase in the signal with increasing antibody concentration was confirmed, and the binding activity was quantitatively evaluated by fitting with a sigmoid function.
(§4) HEK293 cells stored in liquid nitrogen were initiated into the culture by thawing. […]

[4] = test system: sulfated CCR5 on HEK293 cells transfected with CCR5 + TPST1 + TPST2 (C12); experiment: Flow cytometry binding to C12 cells; assay type: cell-based; conditions: BA8 full-length IgG, median fluorescence intensity vs concentration, sigmoid fit, read-out: half-maximal binding concentration (BC50)
Excerpt: as §1, §2, §3, §4

[5] = test system: endogenous CCR5 expressed on TZM-bl; experiment: Flow cytometry binding to TZM-bl cells; assay type: cell-based; conditions: BA8 full-length IgG, read-out: BC50 (the source's name)
Method: Cells were aliquoted into 96 Well Conical (V) Bottom Plates (ThermoFisher Scientific) at 50,000 cells per sample and fixed with 2% paraformaldehyde at 4 °C for 30 min. After a PBS wash, 50 μl of goat anti-rabbit IgG Alexa 488 (Invitrogen) diluted 1000-fold by PBS were added to the sample. After incubation at 4 °C for 30 min, PBS washed cells were diluted with PBS containing 2% fetal bovine serum, and flow cytometry was performed using a FACS Canto system (BD Biosciences).

[6] = test system: CCR5 on HEK293 cells transfected with CCR5 (C) or CCR5 + TPST1 (C1); experiment: Flow cytometry binding to C and C1 cells; assay type: cell-based; conditions: cells overexpressing only CCR5 or CCR5 and TPST1
Excerpt: as §1, §2
HEK293 cells stored in liquid nitrogen were initiated into the culture by thawing. After the third passage, at 70% confluency, they were transfected with pCAGGS expression vectors containing CCR5, TPST1, or TPST2 using Lipofectamine 3000 Transfection Reagent (ThermoFisher Scientific). To exclude artifacts caused by the transfection operation itself, empty vectors without the objective protein were transfected if the protein was not to be expressed. […]

[7] = test system: YU2 (CCR5 tropic strain) strain in TZM-bl cells; experiment: Pseudoviral assay (single-round viral infective assay) in TZM-bl cells; assay type: cell-based, HIV; conditions: 48 h post-infection, luciferase read-out, BA8 up to 50 μg/ml (approximately 350 nM)
Method: Subsequently, we conducted a pseudoviral test using TZM-bl cells.
The anti-HIV activity of BA8, isotype control antibody, and Maraviroc (Sigma-Aldrich) in a single-round viral infective assay against the YU2 (CCR5 tropic strain) strain in TZM-bl cells. At 48 h post-infection, cells were lysed, and relative light units were measured using a Steady-Glo luciferase assay system and GloMax Discover microplate reader (Promega).

[8] = Fab immobilized on CM5 chip, sulfated peptide as analyte

B1: BA8: rabbit antibody clone from phage display that specifically recognizes the sulfated N-terminal peptide of CCR5 (antibody, V domains shown)
VH: QSLEESGGGLFKPTDTLTLTCTVSGFSLSSYSIRWVRQAPGNGLEWIGAIGSGGNAYYTSWAKSRSTITRNTNENTVTLKMTSLTVADTATYFCARGGINFGIWGPGTLVTVSS
VL: AAVLTQTPSPVSAAVGSTVTINCQSSQSVYSKNWLSWFQQKPGQPPKQLIYSASTLDSGVPSRFSGSGSGTQFTLTISGVQCDDAATYYCQGTYGDASAFGGGTEVVVK
[1]; Fab immobilized on CM5 chip by amine coupling (~3000 RU), sulfated peptide as analyte (2 to 162 nM; 20 nM to 1620 nM for the weak mutants of Fig. 3), 30 μl/min
  kon: 251000 mol/L/s
[1]; [8]
  Kd: 0.809 nM
  koff: 0.000203 s⁻¹
[2]; SYPRO Orange, 8.3 μM unbound Fab, heated at 1.0 °C/min
  melting temperature (Tm), unbound (pre-binding): 70.8 °C
[2]; SYPRO Orange, solution remaining in the cell after ITC measurement, 1.0 °C/min
  melting temperature (Tm) of BA8 forming a complex with the sulfated peptide: 75.6 °C
[2]; complex from the ITC measurement
  increase of Tm after forming a complex with the sulfated peptide versus BA8 alone: 4.8 °C
[3]; C2 cells, BA8 full-length IgG, median fluorescence intensity vs concentration, sigmoid fit, read-out: half-maximal binding concentration (BC50)
  EC50: 3.64 nM
[3]; HEK293 overexpression system, C2 or C12 not specified, read-out: BC50 in overexpression system using HEK293 cells (approximate, discussion)
  EC50: ~3 nM
[4]
  EC50: 3.71 nM
[5]
  EC50: 49 nM and ~50 nM
[6]
  binding to C and C1 cells in flow cytometry, in words: slight binding
[7]
  inhibition of HIV infection, in words: did not significantly inhibit the infection; also recorded: did not show inhibitory activity
